Data reported in paper PMC11726873.

B1: BRCA1 disordered PALB2-binding domain, residues 1377-1426, modified with dichlorotriazine 1 (indole-labeled) (domain or fragment)
chain: GPGSSVSEDCSGLSSQSDILTTQQRDTMQHNLIKLQQEMAELEAVLEQHGSQPS
modifications: a single 272 Da indole incorporation from dichlorotriazine 1; site not determined by MS/MS, the single lysine (residue 1406 in BRCA1) is the intended site
B2: BRCA1 disordered PALB2-binding domain, residues 1377-1426, control (unmodified) preparation (domain or fragment)
chain: B1 chain

Biological target: PALB2 construct (UniProt Q86YC2)
Assay: ITC; BRCA1 (control 0.6 mM, 17 injections; modified 0.255 mM, 32 injections) titrated into PALB2 at 0.06 mM in the cell; 25 °C; 50 mM NaCl, 25 mM sodium phosphate, pH 6.5; single binding site model

Sequence of UniProt Q86YC2 (Q86YC2 whole entry): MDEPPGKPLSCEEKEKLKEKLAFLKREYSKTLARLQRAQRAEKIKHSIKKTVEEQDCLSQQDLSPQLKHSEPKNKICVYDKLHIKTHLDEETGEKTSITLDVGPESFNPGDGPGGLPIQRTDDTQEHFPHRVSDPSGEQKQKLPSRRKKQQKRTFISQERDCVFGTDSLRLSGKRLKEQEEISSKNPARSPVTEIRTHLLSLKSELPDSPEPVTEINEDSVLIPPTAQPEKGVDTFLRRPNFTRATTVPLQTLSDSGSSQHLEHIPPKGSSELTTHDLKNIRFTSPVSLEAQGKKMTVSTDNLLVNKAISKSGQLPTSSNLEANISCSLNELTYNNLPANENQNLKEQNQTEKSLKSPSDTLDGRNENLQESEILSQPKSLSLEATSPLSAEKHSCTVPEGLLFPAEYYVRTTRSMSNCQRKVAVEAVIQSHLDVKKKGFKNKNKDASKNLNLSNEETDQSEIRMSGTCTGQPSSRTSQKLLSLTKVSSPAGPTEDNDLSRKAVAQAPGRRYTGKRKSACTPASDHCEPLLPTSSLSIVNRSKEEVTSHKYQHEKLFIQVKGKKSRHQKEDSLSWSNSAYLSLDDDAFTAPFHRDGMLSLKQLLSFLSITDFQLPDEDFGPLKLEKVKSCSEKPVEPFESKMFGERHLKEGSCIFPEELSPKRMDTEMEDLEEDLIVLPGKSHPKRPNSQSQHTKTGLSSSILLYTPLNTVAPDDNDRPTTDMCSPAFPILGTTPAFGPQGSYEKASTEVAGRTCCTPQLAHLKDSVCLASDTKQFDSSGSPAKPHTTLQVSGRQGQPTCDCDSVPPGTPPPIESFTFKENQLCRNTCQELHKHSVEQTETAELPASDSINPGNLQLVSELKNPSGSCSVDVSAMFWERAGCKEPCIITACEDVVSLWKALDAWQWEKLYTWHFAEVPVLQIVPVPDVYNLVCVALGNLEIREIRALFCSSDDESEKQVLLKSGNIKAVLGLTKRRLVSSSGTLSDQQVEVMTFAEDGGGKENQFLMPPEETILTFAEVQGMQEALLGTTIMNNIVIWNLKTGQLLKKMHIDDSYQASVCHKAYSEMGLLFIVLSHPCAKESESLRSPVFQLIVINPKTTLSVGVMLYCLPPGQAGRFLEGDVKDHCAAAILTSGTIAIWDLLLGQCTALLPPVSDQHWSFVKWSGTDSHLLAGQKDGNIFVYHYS

Kd | Binder
3 µM | B1
4.1 µM | B2
